Data on two molecules can be found in PMC12644819 (Nature Communications, 2025).

Ends that are not written are not given here.

The target of one assay is T1, LptD (E. coli, UniProt P31554 25-784, disulfide bonds Cys31-Cys724 and Cys173-Cys725).
T1 construct: LptD, E. coli outer membrane LPS transporter, β-taco domain plus 26-stranded β-barrel; called full-length LptD in contrast to the β-barrel truncation; Untagged wild-type LptD; also called full-length LptD; endogenous LptD; source: E. coli BW25113, overproduced from pLptDEM^His or pLptDE^His, or endogenous; DDM-solubilised envelope fraction; co-purified (Ni-NTA, SEC)
T1 sequence (looked up): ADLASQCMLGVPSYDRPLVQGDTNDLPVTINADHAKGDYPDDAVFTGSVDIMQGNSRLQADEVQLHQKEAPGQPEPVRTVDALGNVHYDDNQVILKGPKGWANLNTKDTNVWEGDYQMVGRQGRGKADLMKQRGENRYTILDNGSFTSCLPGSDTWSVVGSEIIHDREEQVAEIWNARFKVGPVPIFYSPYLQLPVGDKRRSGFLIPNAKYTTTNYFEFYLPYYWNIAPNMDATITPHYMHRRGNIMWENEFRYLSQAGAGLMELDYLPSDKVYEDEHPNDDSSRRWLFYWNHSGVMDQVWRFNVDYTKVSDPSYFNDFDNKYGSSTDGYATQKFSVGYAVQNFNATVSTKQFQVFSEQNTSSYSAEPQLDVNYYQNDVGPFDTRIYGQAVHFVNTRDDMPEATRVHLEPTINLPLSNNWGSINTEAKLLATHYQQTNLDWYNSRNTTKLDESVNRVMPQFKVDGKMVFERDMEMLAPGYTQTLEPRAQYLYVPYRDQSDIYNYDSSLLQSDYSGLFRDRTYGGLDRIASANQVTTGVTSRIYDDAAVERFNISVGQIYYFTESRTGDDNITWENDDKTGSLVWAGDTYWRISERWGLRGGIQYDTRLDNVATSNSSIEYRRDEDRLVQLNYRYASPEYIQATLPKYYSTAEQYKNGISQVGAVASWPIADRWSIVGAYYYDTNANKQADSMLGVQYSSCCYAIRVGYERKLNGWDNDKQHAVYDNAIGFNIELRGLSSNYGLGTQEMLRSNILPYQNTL
The assay is described as follows: affinity purification with mass spectrometry; nickel-affinity chromatography and gel filtration of LptM^His (wild-type cells) or LptE^His (ΔlptM cells) from DDM-solubilised envelope; SDS-PAGE with Coomassie; ~15 kDa band identified by bottom-up mass spectrometry. To be noted: partners not purified. On the technique in general: SEC sorts molecules by how far they enter the pores of the column.

In another assay the target is T2, LptDEM^His (E. coli, UniProt P31554 25-784; P0ADC1 19-193; P0ADN6 20-67, lipoprotein | lipoprotein).
T2 construct: LptD, E. coli; LptE, E. coli; LptM, E. coli; source: E. coli BW25113 wild type, from pLptDEM^His; purified (Ni-NTA, SEC) in DDM; copies: 1 + 1 + 1
Briefly: native MS; purified LptDEM^His and LptDE^His complexes; subpopulation with a mass shift of 14,301 Da; re-analysed and new spectra. To be noted: both partners purified.

Another assay concerns the target T3, LptDE^His (E. coli, UniProt P31554 25-784; P0ADC1 19-193, lipoprotein).
T3 construct: LptD, E. coli; LptE, E. coli; also called core translocon; the translocon; source: E. coli BW25113 (ΔlptM for native MS), from pLptDE^His or derivatives of pLptDME^His; Ni-NTA (and SEC) in DDM; copies: 1 + 1
The assay is described as above. To be noted: both partners purified.

T3 sequence (P0ADC1 19-193, one chain of several): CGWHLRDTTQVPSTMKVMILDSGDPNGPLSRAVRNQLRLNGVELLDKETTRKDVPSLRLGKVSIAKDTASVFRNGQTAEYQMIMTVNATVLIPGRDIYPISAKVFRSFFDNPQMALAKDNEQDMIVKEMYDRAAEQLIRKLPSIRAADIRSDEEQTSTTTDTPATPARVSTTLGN
T2 sequence (P0ADC1 19-193, one chain of several): as above

B1: LptM^His (natural protein, E. coli, UniProt P0ADN6 20-67, looked up)
chain: CGLKGPLYFPPADKNAPPPTKPVETQTQSTVPDKNDRATGDGPSQVNY
modifications: also: lipoprotein, acyl tails on N-terminal Cys, His-tagged (LptM^His)
notes: LptM, E. coli lipoprotein; source: E. coli BW25113, from pLptDEM^His or pLptD^β-barrelEM^His; DDM-solubilised envelope fraction; purified (Ni-NTA, SEC)
Regarding B1, the binding result with LptD was “binds”.

B2: LptY (natural protein, E. coli, UniProt P31063 16-137, looked up)
chain: CAEVENYNNVVKTPAPDWLAGYWQTKGPQRALVSPEAIGSLIVTKEGDTLDCRQWQRVIAVPGKLTLMSDDLTNVTVKRELYEVERDGNTIEYDGMTMERVDRPTAECAAALDKAPLPTPLP
modifications: lipoprotein
notes: LptY (formerly YedD), E. coli OM lipoprotein of ~14 kDa; an AlphaFold2 model was docked; also called YedD; source: endogenous, E. coli BW25113; co-purified with LptDEM^His or LptDE^His (Ni-NTA, SEC)
For the molecule B2, the “stoichiometry N” value was 1 LptD:LptE:LptM:LptY with LptDEM^His and 1 LptD:LptE:LptY in the assay with LptDE^His.
